The record followed here is US20210371503A1 (UNIVERSITY OF COLOGNE, published 2021).

Positions count from the first letter of the chain named.

Assay [1] has as its target T1, prefusion stabilized SARS-CoV-2 S ectodomain (SARS-CoV-2, UniProt P0DTC2 14-1208).
T1 construct: also called SARS-CoV-2 spike ectodomain; ectodomain of the spike (S) homotrimer of SARS-CoV-2
Put plainly: ELISA, coated S ectodomain [cont'd]. (In general: In an ELISA, binding on a coated surface is turned into a signal by an enzyme label.)

Assay [2] has as its target T1, prefusion stabilized SARS-CoV-2 S …. In words: ELISA, coated S ectodomain.
For assay [3] the target is unchanged. In words: ELISA, coated S ectodomain [cont'd]. This is another data set of the same source.

B1: HbnC2t1p2_D9 (antibody, V domains shown)
VH: QVQLVESGGGVVQPGRSLRLSCAASGFTFSSYGMHWVRQAPGKGLEWVAVIWYDGRNKYYVDSVKGRFTISRDNSKNTLYLQISSLRAEDTAVYYCARAARRPVVTDTMAYYMDVWGKGTTVTVSS
VL: EIVLTQSPATLSLSPGERATLSCRASLSLSSYLAWYQQKPGQAPRLLIYDASNRATGIPARFSGSGSGTDFTLTISSLEPEDFAVYYCQQRSNWPPTWTFGQGTKAEIKR
In the case of B1, a half-maximal response in assay [1] (EC50) required 0.04 µg/mL.

B2: HbnC4t1p1_D5 (antibody, V domains shown)
VH: EVQLVESGGGLVQPGRSLRLSCAASGFTFDDYAMHWVRQAPGKGLEWVSGISWNSGSIGYADSVKGRFTISRDNAKNSLYLQMNSLRAEDTGLYYCAKDINYDSGGYHKNYFDYWGQGTLVTVSS
VL: DIQMTQSPSSLSASVGDRATITCRASQSISSYLNWYQEKPGKAPKLLIYAASSLQSGVPSRFSGSGSGTDFTLTISSLQPEDFATYYCQQSYSNPLTFGGGTKVEIK
As for B2, it took 0.25 µg/mL to reach a half-maximal effect in assay [1] (EC50).

B3: FnC1t2p1_D4 (antibody, V domains shown)
VH: QVQLVQSGSELKKPGASVKVSCKASGYTFLRFAMNWLRQAPGQGLEWMGWIDTNTGTPTYAQGFTGRFVFSLDTSVSTAYLQISSLKAEDTAVYYCARSLRGANLVPWGQGTLVTVSS
VL: DIQMTQSPSSLSASVGDRVTITCQASQDVSNYLNWYQQQPGKAPKLLIYDAFNLETGVPSRFSGSGSGTDFTFTISSLQPEDIATYYCQQYDNLPLTFGGGTKVEIK
Take B3: in assay [2], the EC50 – broadly, the midpoint of the concentration-response curve – is 0.02 µg/mL.

B4: FnC1t2p1_G5 (antibody, V domains shown)
VH: B3 VH
VL: B3 VL
In turn, B4 had an EC50 in assay [1] of 0.02 µg/mL.

B5: CnC2t1p1_B4 (antibody, V domains shown)
VH: QVQLVQSGAEVKKPGASVKVSCKASGYTFTSYGISWVRQAPGQGLEWMGWISAYNGNTNYAQKLQGRVTMTTDTSTSTAYMELRSLRSDDTAVYYCARDGELLGWFDPWGQGTLVTVSS
VL: QSALTQPASVSGSPGQSITISCTGTSSDVGSYNLVSWYQQHPGKAPKLMIYEGSKRPSGVSNRFSGSKSGNTASLTISGLQAEDEADYYCCSYAGSSTWVFGGGTKLTVL
On to B5, for which a half-maximal effect in assay [2] (EC50) was put at 0.03 µg/mL.

B6: CnC2t1p1_E8 (antibody, V domains shown)
VH: QVQLVQSGAEVKNPGASVKVSCKASGYIFTNYYIHWVRQAPGQGLEWVGWIHSLSGGTSYAQKFQGRVTLTRDASIRTAYMELSRLGSDDTALYYCARASVSTITDFDYWGQGTLVAVSS
VL: B5 VL with S27G, M49V, G53A, S54T, S65F, G66A, S96V, S97R, W99V
In assay [2], B6 displayed an EC50 of 0.13 µg/mL.

B7: CnC2t1p1_G6 (antibody, V domains shown)
VH: B6 VH with N13K, S75P, R85G, L93V, S102A
VL: B5 VL with S27G, V29I, H41Y, M49I, G53A, S65F, G66A, S96V, S97R, W99V
For the molecule B7, in assay [2], the response was half-maximal at 0.31 µg/mL (EC50). This EC50 lies about 2.4-fold higher than the previous one.

B8: MnC1t3p1_G9 (antibody, V domains shown)
VH: EVQLLESGGGLVQPGGSLRLSCAASGFTFRNYAMTWVRQAPGKGLEWVSGISDSGDRTYNADSVKGRFSISRDNSKNTLHLQMNSLRAEDTAVYYCALASGSYFGGANYWGQGTLVTVSS
VL: QAVVTQEPSLTVSPGGTVTLTCGSSTGPVTSDHYPYWFQQKPGQAPTTLIYDTNNKHSWTPARFSGSLLGGKAALTLSGAQPEDEAEYYCLLSYTGARVFGGGTKLTVL
The molecule B8 had an EC50 in assay [3] of 0.33 µg/mL.

B9: HbnC3t1p1_C6 (antibody, V domains shown)
VH: QMQLVQSGPEVKKPGTSVKVSCKASGFTFTSSAVQWVRQARGQRLEWIGWIVVGSGNTNYAQKFQERVTITRDMSTSTAYMELSSLRSEDTAVYYCAAPHCSSTICYDGFDIWGQGTMVTVSS
VL: not shown
B9 gave an EC50 in assay [1] of 0.06 µg/mL.

B10: HbnC3t1p2_C6 (antibody, V domains shown)
VH: B9 VH with T30S, E66G, S77R, V93M, H100Y, I105R, G109A
VL: not shown
With B10, the EC50 in assay [1] turned out to be 0.04 µg/mL. This EC50 is about 1.5-fold lower than that of the molecule before.

B11: HbnC3t1p1_F4 (antibody, V domains shown)
VH: QVQLVESGGGVVQPGRSLRLSCAATGFTFRRYGMHWVRQAPGKGLEWVAGILFDGSNKYYVDSVKGRFTISRDSSRNTLYLQLNSLRREDTAVYYCAKGGDYEWELLESWGQGTLVTVSS
VL: DIQMTQSPSTVSASVGDRVTITCRASQSIDNWLAWYQEKPGKAPKVLIYKASSLESGVPSRFSGRGSGTEFTLTISSLQPGDFATYYCQHYHSFPLTFGGGTKVDIK
B11 displayed a concentration for a half-maximal effect (EC50) in assay [1] of 0.04 µg/mL.

B12: HbnC3t1p1_G4 (antibody, V domains shown)
VH: EVQLVESGGGLVQPGGSLRLSCAASGFTVSSNYMSWVRQAPGKGLEWVSVIYSGGSTFYADSVKGRFTISRDNSKNTLYLQMNSLRAEDTAVYYCARDFGDFFFDYWGQGTLVTVSS
VL: EIVLTQSPGTLSLSPGERATLSCRASQSVSSYLAWYQQKPGQAPRLLIYGVSSRATGIPDRFSGSGSGTDFTLTISRLEPEDFAVYYCQQYGSSPRTFGQGTKVEIK
B12: in assay [1], the midpoint of the response, the EC50, lay at 0.02 µg/mL.

B13: HbnC3t1p2_B10 (antibody, V domains shown)
VH: B12 VH with T28I, F99Y, F102Y
VL: B12 VL with Y49S, V51A, T56A, S76N, V104L
Take B13: it took 0.22 µg/mL to reach a half-maximal effect in assay [1] (EC50).

B14: MnC2t1p1_A3 (antibody, V domains shown)
VH: EVQLVESGGGLVQPGGSLRLSCAASGFTVSSNYMSWVRQAPGRGLEWVSVIYSGGSTFYADSVKGRFTISRDNSKNTLYLQMNSLRPEDTAVYYCATGARFGESPFDYWGQGTLVTVSS
VL: DIQMTQSPSSVSASVGDRVTITCRASQGISSWLAWYQQKPGKAPKLLIYAASSLQSGVPSRFSGSGSGTDFTLTISSLQPEDFATYYCQQANSFPGTFGQGTKVEIK
In turn, B14 gave a concentration giving a half-maximal response (EC50) in assay [3] of 0.05 µg/mL.

B15: MnC2t1p1_C5 (antibody, V domains shown)
VH: B14 VH with R43K, F58Y, P87A
VL: B14 VL
In assay [3], B15 showed a 50% effective concentration (EC50) of 0.07 µg/mL.

B16: FnC1t1p2_A5 (antibody, V domains shown)
VH: QVQLVQSGAEVKKPGASVKVSCKASGYTFTSYDINWVRQATGQGLEWMGWMNPNSGNTGYAQKFQGRVTMTRNTSISTAYMELSSLRSEDTAVYYCARATTDCSSTSCWSLDFWSGYYTGGREKIFDYWGQGTLVTVSS
VL: not shown
Turning to B16, in assay [2], the binding result is given as “binds”.

B17: CnC2t1p1_D6 (antibody, V domains shown)
VH: EVQLVESGGGLVQPGRSLRLSCTASGFTFGDYAMSWFRQAPGKGLEWVGFIRSKAYGGTTEYAASVKGRFTISRDDSKSIAYLQMNSLKTEDTAVYYCTRVRRLWFGSYYYGMDVWGQGTTVTVSS
VL: not shown
As for B17, the EC50 in assay [2] was 0.03 µg/mL.

B18: CnC2t1p1_E12 (antibody, V domains shown)
VH: B17 VH with A81V
VL: not shown
In assay [2], B18 registered an EC50 of 0.03 µg/mL.

B19: CnC2t1p1_B10 (antibody, V domains shown)
VH: QVQLVQSGAEVKKPGSSVKVSCKASGGTFSSYAISWVRQAPGQGLEWMGGIIPIFGTANYAQKFQGRVTITADKSTSTAYMELSSLRSEDTAVYYCARVSGYDSSGYWGDYWGQGTLVTVSS
VL: EIVLTQSPATLSLSPGERATLSCRASQSVSSYLAWYQQKPGQAPRLLIYDASNRATGIPARFSGSGSGTDFTLTISSLEPEDFAVYYCQQRSNWPPALTFGGGTKVEIK
B19 yielded an EC50 in assay [2] of 0.32 µg/mL.
